{
  "source": "patent US20180072783A1",
  "about": "(published 2018)",
  "data": [
    {"biological_target": "T1, Ang2 (UniProt O15123 19-496)", "T1 chain": "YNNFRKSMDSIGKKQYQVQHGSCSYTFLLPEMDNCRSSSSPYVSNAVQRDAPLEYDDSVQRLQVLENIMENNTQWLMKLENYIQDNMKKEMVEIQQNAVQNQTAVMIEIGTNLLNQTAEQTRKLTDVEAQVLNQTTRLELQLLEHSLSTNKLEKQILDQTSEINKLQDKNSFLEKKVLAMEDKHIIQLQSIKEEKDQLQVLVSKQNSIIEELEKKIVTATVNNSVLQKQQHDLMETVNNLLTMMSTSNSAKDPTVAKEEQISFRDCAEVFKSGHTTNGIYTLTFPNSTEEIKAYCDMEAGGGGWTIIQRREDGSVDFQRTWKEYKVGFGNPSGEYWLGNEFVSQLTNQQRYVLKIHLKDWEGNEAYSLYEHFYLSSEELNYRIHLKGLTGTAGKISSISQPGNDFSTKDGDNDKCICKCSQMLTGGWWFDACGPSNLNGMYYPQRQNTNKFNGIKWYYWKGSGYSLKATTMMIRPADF", "assay": "direct binding ELISA; MBP fusion", "units": {"EC50": "nM"}, "values": [
      {"binder": "AQTNFMPMDNDEGLLYEQFI", "note": "[L1-7D MDD (ZC12)]", "EC50": 0.153},
      {"binder": "AQTNFMPMDNDEGLLYEEFI", "note": "[L1-7D MVD (2A1)]", "EC50": "> 100"},
      {"binder": "AQTNFMPMDDDELLLYEQFIL", "note": "[L1-7D MKD (5A8)]", "EC50": "> 100"},
      {"binder": "AQTNFMPMDNDEALLYEEFI", "note": "[L1-7D MHD (3C3)]", "EC50": 17},
      {"binder": "AQTNFMPMDNDEALLYEQFI", "note": "[L1-7D MQD (1A12)]", "EC50": "> 100"},
      {"binder": "AQTNFMPMDQDELLLYEQFI", "note": "[L1-7D MND (4H4)]", "EC50": 0.411},
      {"binder": "KSLSLSPGGNGTTNFMPMDQDEALLYEEFI", "note": "[L1-7D MSD (7B2)]", "EC50": 1.38},
      {"binder": "AQTNFMPMDQDEALLYEEFIC", "note": "[L1-7D MAD (6A3)]", "EC50": "> 100"}
    ]}
  ]
}
